Target: N-terminally His6-tagged Akt1 PH domain S2-S128 construct (human)
Assay: SPR

A Kd of 1400 nM and a koff of 0.000116 s⁻¹ were found for “Akt inhibitor VI, a 15 residue peptide derived from the oncogene TCL1” in this work.
